Results: patent US20240158517A1 (HIFIBIO HK, published 2024)

Assays:
[1] = molecular target: T1, human CXCR5 (human, UniProt P32302 1-372); assay: cell-based or functional assay
T1 sequence (looked up): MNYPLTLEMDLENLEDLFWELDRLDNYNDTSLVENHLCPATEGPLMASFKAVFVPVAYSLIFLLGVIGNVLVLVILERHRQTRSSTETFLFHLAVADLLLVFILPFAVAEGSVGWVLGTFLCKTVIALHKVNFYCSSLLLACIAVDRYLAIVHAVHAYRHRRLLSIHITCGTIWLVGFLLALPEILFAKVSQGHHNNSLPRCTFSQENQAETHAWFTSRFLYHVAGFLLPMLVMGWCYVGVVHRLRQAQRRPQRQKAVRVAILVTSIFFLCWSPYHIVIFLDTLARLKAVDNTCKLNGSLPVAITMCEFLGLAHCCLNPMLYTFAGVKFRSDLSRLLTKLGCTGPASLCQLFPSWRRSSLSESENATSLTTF

[2] = molecular target: T1, human CXCR5; assay: binding to DX002 cells expressing CXCR5
[3] = molecular target: T1, human CXCR5; assay: flow cytometry on adherent DX002 cells expressing CXCR5, MFI
[4] = molecular target: T1, human CXCR5; assay: binding to hCXCR5, Exp 2 (assay not given)
[5] = molecular target: T1, human CXCR5; assay: binding to hCXCR5, Exp 1 (assay not given)
[6] = molecular target: CD16 (UniProt P08637 17-254, limits assumed); assay: cell-based or functional assay
[7] = molecular target: T1, human CXCR5; assay: flow cytometry on an adherent stable cell line expressing hCXCR5, MFI normalized on the benchmark MFI
Protocol: In order to test the binding capacity to CXCR5, six chimeric monoclonal antibodies were tested in binding assay using adherent stable cell line expressing the target antigen hCXCR5.

[8] = molecular target: T2, murine CXCR5 (mouse, UniProt Q04683 1-374); assay: flow cytometry on cells transiently transfected with murine CXCR5
T2 construct: whole, on cells; also called mouse CXCR5 ortholog
T2 sequence (looked up): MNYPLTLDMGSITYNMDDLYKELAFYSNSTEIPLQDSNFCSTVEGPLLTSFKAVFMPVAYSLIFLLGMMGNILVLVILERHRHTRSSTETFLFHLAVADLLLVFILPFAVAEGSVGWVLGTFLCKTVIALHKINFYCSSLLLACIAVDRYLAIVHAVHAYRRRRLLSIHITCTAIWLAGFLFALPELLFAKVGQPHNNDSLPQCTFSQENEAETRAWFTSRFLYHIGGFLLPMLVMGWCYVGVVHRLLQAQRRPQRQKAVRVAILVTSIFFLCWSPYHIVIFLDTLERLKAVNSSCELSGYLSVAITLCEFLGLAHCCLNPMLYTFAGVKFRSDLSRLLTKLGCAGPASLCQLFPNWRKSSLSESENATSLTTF

[9] = molecular target: T3, cynomolgus CXCR5 (cynomolgus monkey, UniProt G8F5K4 1-372); assay: flow cytometry on cells transiently transfected with cynomolgus CXCR5
T3 construct: whole, on cells; also called monkey CXCR5 ortholog
T3 sequence: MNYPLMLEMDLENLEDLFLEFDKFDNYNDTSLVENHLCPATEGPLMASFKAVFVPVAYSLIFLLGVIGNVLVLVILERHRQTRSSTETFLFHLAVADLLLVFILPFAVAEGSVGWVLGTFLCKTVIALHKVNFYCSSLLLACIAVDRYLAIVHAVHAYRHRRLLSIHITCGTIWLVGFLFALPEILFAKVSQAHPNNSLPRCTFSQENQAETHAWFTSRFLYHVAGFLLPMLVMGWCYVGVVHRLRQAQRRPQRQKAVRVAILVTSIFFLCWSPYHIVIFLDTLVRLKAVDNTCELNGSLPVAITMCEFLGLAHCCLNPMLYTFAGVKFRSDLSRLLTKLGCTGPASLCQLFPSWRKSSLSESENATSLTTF

[10] = molecular target: T4, human CXCR3 (human, UniProt P49682 1-368, limits assumed); assay: flow cytometry (MFI) on hCXCR3
T4 construct: also called hCXCR3
T4 sequence (looked up): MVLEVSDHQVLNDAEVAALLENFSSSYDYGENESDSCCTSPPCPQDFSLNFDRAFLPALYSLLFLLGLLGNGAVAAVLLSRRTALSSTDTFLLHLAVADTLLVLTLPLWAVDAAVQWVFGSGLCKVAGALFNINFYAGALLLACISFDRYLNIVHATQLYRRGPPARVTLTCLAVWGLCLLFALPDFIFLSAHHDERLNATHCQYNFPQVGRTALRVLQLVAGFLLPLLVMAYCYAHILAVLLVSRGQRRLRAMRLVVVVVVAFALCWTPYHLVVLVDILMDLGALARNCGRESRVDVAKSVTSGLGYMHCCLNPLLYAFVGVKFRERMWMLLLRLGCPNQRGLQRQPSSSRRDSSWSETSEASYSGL

[11] = molecular target: T1, human CXCR5; assay: flow cytometry on DX002 cells expressing CXCR5, MFI

CD16, sequence (P08637 17-254 limits assumed): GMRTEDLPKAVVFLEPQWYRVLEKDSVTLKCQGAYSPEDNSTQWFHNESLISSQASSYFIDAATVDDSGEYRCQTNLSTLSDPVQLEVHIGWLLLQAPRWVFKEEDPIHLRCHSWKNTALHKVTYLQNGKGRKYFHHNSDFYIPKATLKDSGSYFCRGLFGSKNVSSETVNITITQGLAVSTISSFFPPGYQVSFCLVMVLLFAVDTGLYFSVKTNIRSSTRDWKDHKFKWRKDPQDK

B1: HFB2-4hG1DE (antibody, V domains shown)
VH: QVQLKESGPGLVAPSQSLSITCTVSGFSLTSYGVSWVRQPPGKGLEWLGVIWGDGSTNYHSGLISRLSISKDNSKSQVFLKLNSLQSDDTATYYCARVVYWGQGTLVTVSA
VL: DIVMTQAAPSVPVTPGESISISCRSSKSLLHSNGKTYLYWFLQRPGQSPQLLLYRMSNLASGVPDRFSGSGSGTAFTLRISRVEAEDVGVYYCMQHLEYPYTFGGGTKLEIK
notes: Chimeric HFB2-4 in the DE scaffold: human IgG1 constant region with S239D/I332E; also called HFB2-4DE
[1]
  ADCC lysis of Raji cells by primary NK cells, EC50: 0.76 pM
  ADCC lysis of peripheral primary B cells by primary NK cells, EC50: 0.00044 pM
[2]
  EC50: 186 pM
[3]
  EC50: 112 pM
[4]
  EC50: 1300 pM
[5]
  EC50: 1000 pM

B2: HFB2-4hz9-hG1DE (antibody, V domains shown)
VH: QVQLQESGPGLVKPSETLSLTCTVSGFSLTSYGVSWVRQPPGKGLEWIGVIWGDGSTNYNPSLKSRVTISKDTSKNQVSLKLSSVTAADTAVYYCARVVYWGQGTLVTVSS
VL: DIVMTQSPLSLPVTPGEPASISCRSSKSLLHSNGKTYLYWFLQKPGQSPQLLIYRMSNLASGVPDRFSGSGSGTDFTLKISRVEAEDVGVYYCMQHLEYPYTFGGGTKVEIK
notes: Humanized (VH3/VL1), human IgG1 constant region with S239D/I332E (hG1DE)
[6]
  ADCC activity, EC50: 1 to 2 pM
[4]
  EC50: 1000 pM
[5]
  EC50: 1300 pM

B3: HFB2-1-hG1 (antibody, V domains shown)
VH: EVKLEESGGGLVQPGGSMKLSCVASGFTFSNYWMNWVRQSPEKGLEWVAQIRLKSDNYATHYTESVKGRFTISRDDSKSSVYLQMNNLRAEDTGIYYCTPPNFDYWGQGTTLTVSS
VL: DIVMTQAAPSVTVTPGESVTISCRSTTSLLHRSGKHKFYWFLQRPGQSPQLLIYYVSNLASGVPDRFSGSGSGTDFTLRISRVEAEDFGVYYCMQSLEFPLTFGTGTKLEIK
notes: Mouse-human chimeric antibody: murine VH and VL on the human IgG1 constant region
[7]
  EC50: 481 pM
[8]
  binding result: no binding (tested: about 150 nM)
[9]
  binding result: no binding (tested: about 150 nM)
[10]
  binding result: no binding (tested: about 150 nM)

B4: afucosylated HFB2-4hz42-hG1 (antibody, V domains shown)
VH: QVQLVQSGAEVKKPGASVKVSCKASGFSLTSYGVSWVRQAPGQGLEWMGVIWGDGSTNYAQKLQGRVTMTKDTSTSTAYMELRSLRSDDTAVYYCARVVYWGQGTLVTVSS
VL: EIVMTQSPATLSVSPGERATLSCRSSKSLLHSNGKTYLYWFQQKPGQAPRLLIYRMSNLASGIPARFSGSGSGTEFTLTISSVQSEDVAVYYCMQHLEYPYTFGQGTKLEIK
modifications: afucosylated (no core fucose on the Fc N-glycan of the heavy chain)
notes: Afucosylated format of humanized HFB2-4hz42-hG1 (human IgG1); also called afu-HFB2-4hz42-hG1; Afu-HFB2-4hz42-hG1
[11]
  EC50: 820 pM

B5: HFB2-2-hG1 (antibody, V domains shown)
VH: EVQLVETGGGLVQPKGSLKLSCAASGFTFNTNAMNWVRQAPGKGLEWVARIRSKSNNYATHYVDSVKDRFTISRDDSQSMLYLQMNNLKTEDTAMYYCVSWDPFAYWGQGTLVTVSA
VL: NIMMTQSPSSLAVSAGEKVTMSCKSSQSVLYSSNQKNYLAWYQQKPGQSPKLLIYWASTRASGVPDRFTGSGSGTDFTLTISSVQTEDLAVYYCHQYLSSWTFGGGAKLEIK
notes: Mouse-human chimeric antibody, human IgG1 constant region
[7]
  EC50: 482 pM
[8]
  binding result: no binding (tested: about 150 nM)
[9]
  binding result: no binding (tested: about 150 nM)
[10]
  binding result: no binding (tested: about 150 nM)

B6: HFB2-4hz42hG1DE (antibody, V domains shown)
VH: QVQLVQSGAEVKKPGASVKVSCKASGFSLTSYGVSWVRQAPGQGLEWMGVIWGDGSTNYAQKLQGRVTMTKDTSTSTAYMELRSLRSDDTAVYYCARVVYWGQGTLVTVSS
VL: EIVMTQSPATLSVSPGERATLSCRSSKSLLHSNGKTYLYWFQQKPGQAPRLLIYRMSNLASGIPARFSGSGSGTEFTLTISSVQSEDVAVYYCMQHLEYPYTFGQGTKLEIK
notes: Humanized (VH10/VL6) in hG1DE format
[2]
  EC50: 171 pM
[3]
  EC50: 123 pM

B7: afucosylated HFB2-4hG1 (antibody, V domains shown)
VH: QVQLKESGPGLVAPSQSLSITCTVSGFSLTSYGVSWVRQPPGKGLEWLGVIWGDGSTNYHSGLISRLSISKDNSKSQVFLKLNSLQSDDTATYYCARVVYWGQGTLVTVSA
VL: DIVMTQAAPSVPVTPGESISISCRSSKSLLHSNGKTYLYWFLQRPGQSPQLLLYRMSNLASGVPDRFSGSGSGTAFTLRISRVEAEDVGVYYCMQHLEYPYTFGGGTKLEIK
modifications: afucosylated (no core fucose on the Fc N-glycan of the heavy chain)
notes: Afucosylated format of the chimeric HFB2-4hG1 (human IgG1, no DE mutation); also called afu-HFB2-4hG1; AfuHFB2-4hG1
[11]
  EC50: 810 pM
